Test results from US20140235820A1, “METHODS AND COMPOSITIONS FOR MODULATING THE Wnt PATHWAY” (Genentech, Inc., priority 2010, published 2014).
Values belong to the molecule of their own block, whether it stands above or below them. Non-standard residues stand in square brackets, D forms with d. NMeI = CC[C@H](C)[C@H](NC)C(=O)O; NMeK = CN[C@@H](CCCCN)C(=O)O; NMeS = CN[C@@H](CO)C(=O)O

Tests used:
[1] = target: T1, human LRP6 construct E1E2 (amino acids A20-E631) (human, UniProt O75581 20-631, biotinylated for biolayer interferometry); assay: BLI affinity
T1 construct: range 20-631; also called LRP6 E1E2
T1 sequence (looked up): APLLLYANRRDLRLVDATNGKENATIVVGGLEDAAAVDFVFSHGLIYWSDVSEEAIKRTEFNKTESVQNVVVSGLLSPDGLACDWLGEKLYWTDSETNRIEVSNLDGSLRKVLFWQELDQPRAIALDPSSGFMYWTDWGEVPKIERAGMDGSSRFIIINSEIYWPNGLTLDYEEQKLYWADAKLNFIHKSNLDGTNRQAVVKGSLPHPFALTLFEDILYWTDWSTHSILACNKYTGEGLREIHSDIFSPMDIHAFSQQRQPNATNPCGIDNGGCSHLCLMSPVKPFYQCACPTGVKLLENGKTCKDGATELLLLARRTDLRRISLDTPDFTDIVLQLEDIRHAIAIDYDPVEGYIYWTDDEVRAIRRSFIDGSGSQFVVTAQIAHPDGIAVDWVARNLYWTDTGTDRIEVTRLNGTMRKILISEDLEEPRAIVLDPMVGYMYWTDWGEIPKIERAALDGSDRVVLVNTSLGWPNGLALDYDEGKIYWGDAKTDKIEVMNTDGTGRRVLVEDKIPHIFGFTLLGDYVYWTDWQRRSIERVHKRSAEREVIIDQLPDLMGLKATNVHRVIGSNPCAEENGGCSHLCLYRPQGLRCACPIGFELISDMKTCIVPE
Experimental: (§1) Binding kinetics were measured by biolayer interferometry using an Octet Red instrument (ForteBio) as previously described (11). Streptavidin (SA) biosensors were loaded with biotinylated hLRP6 in 50 mMTris, pH 8, 300 mM NaCl, 5% (v/v) glycerol, and 0.05% (w/v) Triton X-100. The loaded biosensors were washed in the same buffer before carrying out association and dissociation measurements for the indicated times. The Kd of each interaction was determined using steady state-analysis through the Octet Red software v6.3. Each reported value represents an average of three or more experiments at different concentrations, with a fitted experimental curve for which the square of the correlation coefficient (R²) is above 0.96.

[2] = target: T2, human LRP6 construct E1 (amino acids A20-D325) (human, UniProt O75581 20-325); assay: synthetic peptides, competition IC50 (FIG. 18)
T2 construct: range 20-325; In the Fab crystal E1 arose from E1E2 degraded beyond Arg 335; residues Ala20 to Lys324 were traced; also called LRP6 E1; E1 domain
T2 sequence (looked up): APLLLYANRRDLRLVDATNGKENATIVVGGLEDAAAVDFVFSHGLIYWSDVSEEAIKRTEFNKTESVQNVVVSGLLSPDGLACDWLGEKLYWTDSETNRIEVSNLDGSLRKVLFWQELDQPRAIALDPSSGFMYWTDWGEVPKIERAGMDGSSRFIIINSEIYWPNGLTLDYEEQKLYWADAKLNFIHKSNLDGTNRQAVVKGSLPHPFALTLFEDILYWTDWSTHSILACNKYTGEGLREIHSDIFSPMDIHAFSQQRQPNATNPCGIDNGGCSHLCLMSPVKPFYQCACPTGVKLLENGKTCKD

LRP6 E3E4 = target: T3, LRP6 E3E4 (Homo sapiens, UniProt O75581); assay: Biolayer interferometry binding to LRP6 E3E4
T3 construct: construct E3E4 amino acids E631-Q1253 of LPR6; made in house; host or cells: Tni insect cells (baculovirus, secreted)
T3 sequence (O75581 631-1253): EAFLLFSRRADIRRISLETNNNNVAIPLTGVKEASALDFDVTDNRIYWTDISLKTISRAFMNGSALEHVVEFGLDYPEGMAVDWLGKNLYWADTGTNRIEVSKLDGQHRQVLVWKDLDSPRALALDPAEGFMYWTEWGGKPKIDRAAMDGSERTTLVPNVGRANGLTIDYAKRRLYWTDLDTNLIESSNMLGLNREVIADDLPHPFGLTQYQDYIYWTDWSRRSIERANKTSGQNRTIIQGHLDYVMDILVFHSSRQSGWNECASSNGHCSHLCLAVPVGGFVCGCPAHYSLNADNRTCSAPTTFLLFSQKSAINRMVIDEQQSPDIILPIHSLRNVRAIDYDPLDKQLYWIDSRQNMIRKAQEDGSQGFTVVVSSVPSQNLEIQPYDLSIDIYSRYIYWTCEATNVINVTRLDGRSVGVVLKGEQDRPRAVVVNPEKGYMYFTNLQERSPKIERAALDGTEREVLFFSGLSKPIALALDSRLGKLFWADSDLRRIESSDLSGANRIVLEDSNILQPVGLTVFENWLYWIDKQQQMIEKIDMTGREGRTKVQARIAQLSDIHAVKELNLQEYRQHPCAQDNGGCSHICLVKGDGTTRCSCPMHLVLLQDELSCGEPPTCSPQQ
Experimental: as §1, with “(R^2)” for “(R²)”
(§2) The interaction of the different Dkks and sclerostin with various domains of LRP6 was measured using a biolayer interferometry assay (11). Purified receptors contained individual β-propeller-EGF-like units (E1, E2, or E4), two β-propellers (E1E2 or E3E4), or four β-propellers (E1E4))—as follows:
(§3) Human LRP6: construct E1E4-amino acids A20-Q1253 of LPR6; construct E1E2-amino acids A20-E631 of LPR6; construct E3E4 amino acids E631-Q1253 of LPR6; construct E1-amino acids A20-D325 of LPR6; construct E2-amino acids […]-E631 of LPR6; construct E4-T933-Q1253. The individual LRP6 β-propeller E3 could not be expressed.

LRP6 E1E4 = target: T4, LRP6 E1E4 (Homo sapiens, UniProt O75581); assay: Biolayer interferometry binding to LRP6 E1E4
T4 construct: construct E1E4-amino acids A20-Q1253 of LPR6; made in house; host or cells: Tni insect cells (baculovirus, secreted)
T4 sequence (O75581 20-1253): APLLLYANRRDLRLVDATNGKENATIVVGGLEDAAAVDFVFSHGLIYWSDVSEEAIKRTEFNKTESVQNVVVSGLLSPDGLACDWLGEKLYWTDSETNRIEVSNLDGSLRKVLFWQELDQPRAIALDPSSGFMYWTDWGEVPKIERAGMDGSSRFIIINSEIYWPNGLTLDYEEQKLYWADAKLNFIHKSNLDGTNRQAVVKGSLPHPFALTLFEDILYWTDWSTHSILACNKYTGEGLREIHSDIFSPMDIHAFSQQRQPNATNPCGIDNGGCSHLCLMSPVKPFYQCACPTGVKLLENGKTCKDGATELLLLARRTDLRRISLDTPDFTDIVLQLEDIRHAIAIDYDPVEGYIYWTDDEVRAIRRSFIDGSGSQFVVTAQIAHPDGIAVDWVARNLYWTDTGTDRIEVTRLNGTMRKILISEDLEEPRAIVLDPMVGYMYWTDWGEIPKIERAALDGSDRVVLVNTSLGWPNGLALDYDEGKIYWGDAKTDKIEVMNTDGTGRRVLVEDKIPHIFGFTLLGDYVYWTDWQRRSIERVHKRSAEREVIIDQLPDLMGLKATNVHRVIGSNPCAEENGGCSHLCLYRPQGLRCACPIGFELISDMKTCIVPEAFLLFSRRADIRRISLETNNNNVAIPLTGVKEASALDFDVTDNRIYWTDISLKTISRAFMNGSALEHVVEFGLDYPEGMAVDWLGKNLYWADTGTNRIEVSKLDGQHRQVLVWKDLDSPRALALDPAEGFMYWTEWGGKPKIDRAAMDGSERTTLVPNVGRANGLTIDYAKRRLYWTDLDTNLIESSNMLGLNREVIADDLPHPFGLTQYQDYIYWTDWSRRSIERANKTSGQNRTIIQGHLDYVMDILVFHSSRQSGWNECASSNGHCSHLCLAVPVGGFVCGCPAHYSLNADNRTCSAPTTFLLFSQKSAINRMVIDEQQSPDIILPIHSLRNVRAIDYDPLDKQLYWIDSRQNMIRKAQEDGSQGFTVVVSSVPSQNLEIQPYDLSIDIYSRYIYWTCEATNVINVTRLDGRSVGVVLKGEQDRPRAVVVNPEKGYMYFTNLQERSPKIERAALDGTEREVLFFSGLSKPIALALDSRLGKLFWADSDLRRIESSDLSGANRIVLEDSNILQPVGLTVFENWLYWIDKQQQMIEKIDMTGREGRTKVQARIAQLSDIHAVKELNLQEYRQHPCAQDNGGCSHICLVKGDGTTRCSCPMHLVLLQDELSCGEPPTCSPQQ
Experimental: as §1, with “(R^2)” for “(R²)”
as §2, §3

LRP6 E1E2 = target: T5, LRP6 E1E2 (Homo sapiens, UniProt O75581); assay: Biolayer interferometry binding to LRP6 E1E2
T5 construct: construct E1E2-amino acids A20-E631 of LPR6; made in house; host or cells: Tni insect cells (baculovirus, secreted)
T5 sequence (O75581 20-631): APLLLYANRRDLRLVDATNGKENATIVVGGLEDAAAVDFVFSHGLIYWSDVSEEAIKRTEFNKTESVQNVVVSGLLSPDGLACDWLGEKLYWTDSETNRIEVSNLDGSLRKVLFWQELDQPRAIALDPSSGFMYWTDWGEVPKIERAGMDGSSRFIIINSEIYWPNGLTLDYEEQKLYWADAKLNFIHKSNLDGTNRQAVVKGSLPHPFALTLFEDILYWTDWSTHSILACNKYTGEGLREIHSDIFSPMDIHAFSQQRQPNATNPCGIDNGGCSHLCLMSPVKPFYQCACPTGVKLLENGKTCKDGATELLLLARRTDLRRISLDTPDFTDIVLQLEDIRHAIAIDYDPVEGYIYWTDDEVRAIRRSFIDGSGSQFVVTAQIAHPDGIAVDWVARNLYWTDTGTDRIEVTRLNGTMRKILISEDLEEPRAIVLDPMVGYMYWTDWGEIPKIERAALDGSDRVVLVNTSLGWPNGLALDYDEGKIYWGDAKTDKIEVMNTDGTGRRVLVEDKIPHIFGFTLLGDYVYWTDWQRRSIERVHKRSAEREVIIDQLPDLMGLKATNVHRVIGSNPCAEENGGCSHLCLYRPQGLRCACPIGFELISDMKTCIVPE
Experimental: as §1, with “(R^2)” for “(R²)”
as §2, §3

fold loss in affinity against wild-type sclerostin [1]: 14 fold
B1: Sclerostin Asn117Ala (ligand, UniProt Q9BQB4 24-213, looked up)
chain: QGWQAFKNDATEIIPELGEYPEPPPELENNKTMNRAENGGRPPHHPFETKDVSEYSCRELHFTRYVTDGPCRSAKPVTELVCSGQCGPARLLPAAIGRGKWWRPSGPDFRCIPDRYRAQRVQLLCPGGEAPRARKVRLVASCKCKRLTRFHNQSELKDFGTEAARPQKGRKPRPRARSAKANQAELENAY
notes: also called sclerostin N117A

binding result [2]: no binding
B3: Ac-NSIKGY-am with an Nα-methyl amino acid at the I position (peptide)
peptide: Ac-NS[NMeI]KGY-NH2
SMILES: CC[C@H](C)[C@@H](C(=O)N[C@@H](CCCCN)C(=O)NCC(=O)N[C@@H](Cc1ccc(O)cc1)C(N)=O)N(C)C(=O)[C@H](CO)NC(=O)[C@H](CC(N)=O)NC(C)=O

binding to LRP6 E3E4 (in words) (LRP6 E3E4): not to E3E4
binding to LRP6 E1E4 (in words) (LRP6 E1E4): retain binding
binding to LRP6 E1E2 (in words) (LRP6 E1E2): affect binding
fold loss in affinity against wild-type Dkk1 [1]: 75 fold
B7: Dkk1 Asn40Ala (ligand, human, UniProt O94907 32-266, looked up)
chain: TLNSVLNSAAIKNLPPPLGGAAGHPGSAVSAAPGILYPGGNKYQTIDNYQPYPCAEDEECGTDEYCASPTRGGDAGVQICLACRKRRKRCMRHAMCCPGNYCKNGICVSSDQNHFRGEIEETITESFGNDHSTLDGYSRRTTLSSKMYHTKGQEGSVCLRSSDCASGLCCARHFWSKICKPVLKEGQVCTKHRRKGSHGLEIFQRCYCGEGLSCRIQKDHHQASNSSRLHTCQRH
notes: also called Dkk1 N40A

The next lines start with the molecule.

B2: Ac-NSIKGY-am with an Nα-methyl amino acid at the S position (peptide)
peptide: Ac-N[NMeS]IKGY-NH2
SMILES: CC[C@H](C)[C@H](NC(=O)[C@H](CO)N(C)C(=O)[C@H](CC(N)=O)NC(C)=O)C(=O)N[C@@H](CCCCN)C(=O)NCC(=O)N[C@@H](Cc1ccc(O)cc1)C(N)=O
binding result [2]: no binding

B4: Ac-NSIKGY-am (peptide)
peptide: Ac-NSIKGY-NH2
notes: also called minimized analogue of the Dkk1 peptide; Lys parent
binding result [2]: binds

Molecule: Ac-QSIKGY-NH2 [Ac-NSIKGY-am with Gln in place of Asn]
binding result [2]: no binding

Molecule: Ac-NSEKGY-NH2 [Ac-NSIKGY-am with Glu in place of Ile]
binding result [2]: no binding

B5: Dkk4: Dickkopf 4, carrier-free protein from R&D Systems (protein, UniProt Q9UBT3 19-224, looked up)
Dickkopf-related protein 4: LVLDFNNIRSSADLHGARKGSQCLSDTDCNTRKFCLQPRDEKPFCATCRGLRRRCQRDAMCCPGTLCVNDVCTTMEDATPILERQLDEQDGTHAEGTTGHPVQENQPKRKPSIKKSQGRKGQEGESCLRTFDCGPGLCCARHFWTKICKPVLLEGQVCSRRGHKDTAQAPEIFQRCDCGPGLLCRSQLTSNRQHARLRVCQKIEKL
binding to LRP6 E3E4 (in words) (LRP6 E3E4): very weak binding
binding to LRP6 E1E4 (in words) (LRP6 E1E4): very weak binding
binding to LRP6 E1E2 (in words) (LRP6 E1E2): did not bind

B6: Ac-NSIKGY-am with an Nα-methyl amino acid at the K position (peptide)
peptide: Ac-NSI[NMeK]GY-NH2
SMILES: CC[C@H](C)[C@H](NC(=O)[C@H](CO)NC(=O)[C@H](CC(N)=O)NC(C)=O)C(=O)N(C)[C@@H](CCCCN)C(=O)NCC(=O)N[C@@H](Cc1ccc(O)cc1)C(N)=O
binding result [2]: no binding
